T1: SALL4 ZFC4 WT (Mus musculus, UniProt Q8BX22 870-940)
T1 sequence: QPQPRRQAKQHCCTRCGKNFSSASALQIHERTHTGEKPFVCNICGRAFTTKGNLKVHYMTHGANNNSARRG

T2: SALL4 ZFC4 R900W (Mus musculus, UniProt Q8BX22 870-940, R900W)
T2 sequence: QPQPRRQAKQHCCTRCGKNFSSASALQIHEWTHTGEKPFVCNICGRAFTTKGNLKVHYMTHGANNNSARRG

T3: SALL4 ZFC4 I897S (Mus musculus, UniProt Q8BX22 870-940, I897S)
T3 sequence: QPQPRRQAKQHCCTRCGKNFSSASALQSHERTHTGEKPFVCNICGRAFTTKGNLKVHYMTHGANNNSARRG

T4: SALL4 ZFC4 I897S+V925S (Mus musculus, UniProt Q8BX22 870-940, I897S;V925S)
T4 sequence: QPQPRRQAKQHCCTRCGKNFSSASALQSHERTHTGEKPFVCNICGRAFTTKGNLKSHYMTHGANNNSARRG

B1: EMSA AT-rich probe (dsDNA)
DNA 1: AAAAAATATTAAAAA
DNA 2: TTTTTAATATTTTTT
B2: palindromic AT-rich crystallisation DNA (dsDNA)
DNA 1: GATATTAATATC
DNA 2: GATATTAATATC

Legend:
SALL4 ZFC4 WT [1] = target: T1, SALL4 ZFC4 WT; assay: EMSA; apparent; patient mutation dataset; poly(dI-dC); EMSA: 68.1 nM DY681-dsDNA, 20 mM HEPES pH 7.5, 150 mM K acetate, 5 mM Mg acetate, 10 ng/ul poly(dI-dC), 30 min on ice; 4% native PAGE, 0.5x TBE, 4 C; conditions: protein: recombinant; tags: His6-GST removed with 3C protease; GPDS scar at N-terminus; label: DY681
SALL4 ZFC4 R900W = target: T2, SALL4 ZFC4 R900W; assay: EMSA; EMSA: 20 mM HEPES pH 7.5, 150 mM K acetate, 5 mM Mg acetate, 10 ng/ul poly(dI-dC), 68.1 nM DNA, on ice 30 min, gel at 4 C. HT-SELEX: 10 mM Tris-HCl pH 7.5, 50 m; conditions: protein: recombinant; tags: His6-GST removed with 3C protease; label: DY681
SALL4 ZFC4 I897S = target: T3, SALL4 ZFC4 I897S; assay: as above; conditions: protein: recombinant; tags: His6-GST removed with 3C protease; label: DY681
SALL4 ZFC4 WT [2] = target: T1, SALL4 ZFC4 WT; assay: as above; conditions: protein: recombinant; tags: His6-GST removed with 3C protease; GPDS scar at N-terminus; label: DY681
SALL4 ZFC4 I897S+V925S = target: T4, SALL4 ZFC4 I897S+V925S; assay: as above; conditions: protein: recombinant; tags: His6-GST removed with 3C protease; label: DY681
SALL4 ZFC4 WT [3] = target: T1, SALL4 ZFC4 WT; assay: EMSA; apparent; major groove mutant dataset; poly(dI-dC); EMSA: 68.1 nM DY681-dsDNA, 20 mM HEPES pH 7.5, 150 mM K acetate, 5 mM Mg acetate, 10 ng/ul poly(dI-dC), 30 min on ice; 4% native PAGE, 0.5x TBE, 4 C; conditions: protein: recombinant; tags: His6-GST removed with 3C protease; GPDS scar at N-terminus; label: DY681
SALL4 ZFC4 WT [4] = target: T1, SALL4 ZFC4 WT; assay: X-ray crystallography 2.76 A; Zn2+; 4 ZFC4 and 4 dsDNA per asymmetric unit, unevenly distributed; 50 mM MES pH 6.0, 20% PEG 3350, 60 mM MgCl2; EMSA: 68.1 nM DY681-dsDNA, 20 mM HEPES pH 7.5, 150 mM K acetate, 5 mM Mg acetate, 10 ng/ul poly(dI-dC), 30 min on ice; 4% native PAGE, 0.5x TBE, 4 C; conditions: protein: recombinant; tags: His6-GST removed with 3C protease; GPDS scar at N-terminus; blunt; self-complementary, 2 copies of strand

| Binder | Kd (SALL4 ZFC4 WT [1]) [nM] | Kd (SALL4 ZFC4 R900W) [nM] | Kd (SALL4 ZFC4 I897S) [nM] | Kd (SALL4 ZFC4 WT [2]) [nM] | Kd (SALL4 ZFC4 I897S+V925S) [nM] | Kd (SALL4 ZFC4 WT [3]) [nM] | binding result (SALL4 ZFC4 WT [4]) |
| --- | --- | --- | --- | --- | --- | --- | --- |
| B1 | 472 | 23000 | 4800 | 615 ± 205 | 5100 | 760 | – |
| B2 | – | – | – | – | – | – | binds |
